Test results from patent publication US20250092108A1 (published 2025).
Where a chain is given by its changes, count along the chain named. Names and notes keep the numbering of the source. Read-outs that look alike come from different tables or passages of the source.

T1: human CD25 (IL-2Rα) (human, UniProt P01589 22-213)
T1 chain: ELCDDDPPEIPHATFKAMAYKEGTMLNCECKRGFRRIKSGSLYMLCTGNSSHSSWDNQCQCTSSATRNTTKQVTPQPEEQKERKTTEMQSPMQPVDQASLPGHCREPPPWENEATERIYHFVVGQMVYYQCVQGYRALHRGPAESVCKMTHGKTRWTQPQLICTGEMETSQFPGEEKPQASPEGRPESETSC

B1: XENP14277 (prior art IL-2 variant, mutant 2-4 with Q126T as described in WO 2009/061853, without R38L) (ligand)
chain: APTSSSTKKTQLQLEHLLLDLQMILNGISNHKNPRLARMLTFKFYMPEKATELKHLQCLEEELKPLEEALRLAPSKNFHLRPRDLISDVNVIVLELKGSETTFMCEYADETATIVEFLNRWITFSTSIISTLTHHHHHHHH
B2: CD25 (receptor)
chain: T1 chain
B3: 14192 R38E T41K C125S (protein)
chain: APTSSSTKKTQLQLEHLLLDLQMILNGINNYKNPKLTEMLKFKFYMPKKATELKHLQCLEEELKPLEEVLNLAQSKNFHLRPRDLISNINVIVLELKGSETTFMCEYADETATIVEFLNRWITFSQSIISTLT
B4: 14194 R38N T41Q C125S (protein)
chain: B3 chain with E38N, K41Q
B5: 14209 T41Q F42Y C125S (protein)
chain: B3 chain with E38R, K41Q, F42Y
B6: 14215 R38N T41K C125S (protein)
chain: B3 chain with E38N
B7: XENP14207 (T41D F42Y C125S) (protein)
chain: B3 chain with E38R, K41D, F42Y
B8: 14191 R38Q T41Q C125S (protein)
chain: B3 chain with E38Q, K41Q
B9: XENP26109 (Fc fusion)
chain 1: EPKSSDKTHTCPPCPAPPVAGPSVFLFPPKPKDTLMISRTPEVTCVVVDVKHEDPEVKFNWYVDGVEVHNAKTKPREEEYNSTYRVVSVLTVLHQDWLNGKEYKCKVSNKALPAPIEKTISKAKGQPREPQVYTLPPSREEMTKNQVSLTCDVSGFYPSDIAVEWESDGQPENNYKTTPPVLDSDGSFFLYSKLTVDKSRWEQGDVFSCSVMHEALHNHYTQKSLSLSPGK
chain 2: APASSSTKKTQLQLEHLLLNLQMILNGINNYKNPKLTRMLTFKFYMPKKATELKHLQCLEEELKPLEEVLKLAQSKNFHLRPRDLISNINVIVLELKGSETTFMCEYADETATIVEFLNRWITFSQSIISTLTEPKSSDKTHTCPPCPAPPVAGPSVFLFPPKPKDTLMISRTPEVTCVVVDVKHEDPEVKFNWYVDGVEVHNAKTKPREEQYNSTYRVVSVLTVLHQDWLNGKEYKCKVSNKALPAPIEKTISKAKGQPREPQVYTLPPSREQMTKNQVKLTCLVKGFYPSDIAVEWESNGQPENNYKTTPPVLDSDGSFFLYSKLTVDKSRWQQGNVFSCSVMHEALHNHYTQKSLSLSPGK
B10: XENP14209 (T41Q F42Y C125S) (protein)
chain: B3 chain with E38R, K41Q, F42Y
B11: XENP14381 (prior art IL-2 variant, mutant 2-4 with Q126T, with R38L) (ligand)
chain: B1 chain with R38L
B12: XENP14216 (R38V T41R C125S) (protein)
chain: B3 chain with E38V, K41R
B13: 14214 R38N T41R C125S (protein)
chain: B3 chain with E38N, K41R
B14: XENP14214 (R38N T41R C125S) (protein)
chain: B3 chain with E38N, K41R
B15: 14216 R38V T41R C125S (protein)
chain: B3 chain with E38V, K41R
B16: XENP14217 (R38P T41R C125S) (protein)
chain: B3 chain with E38P, K41R
B17: 14202 R38Q T41S C125S (protein)
chain: B3 chain with E38Q, K41S
B18: XENP14213 (R38Q F42Y C125S) (protein)
chain: B3 chain with E38Q, K41T, F42Y
B19: 14193 R38Q T41R C125S (protein)
chain: B3 chain with E38Q, K41R
B20: 14190 R38Q T41K C125S (protein)
chain: B3 chain with E38Q
B21: XENP26105 (Fc fusion)
chain 1: B9 chain 1
chain 2: B9 chain 2 with T37R, K71N
B22: 14213 R38Q F42Y C125S (protein)
chain: B3 chain with E38Q, K41T, F42Y
B23: 14208 T41M F42Y C125S (protein)
chain: B3 chain with E38R, K41M, F42Y
B24: 24638 (Fc fusion)
chain: APTSSSTKKTQLQLEHLLLDLQMILNGISNHKNPRLARMLTFKFYMPEKATELKHLQCLEEELKPLEEALRLAPSKNFHLRPRDLISDVNVIVLELKGSETTFMCEYADETATIVEFLNRWITFSQSIISTLT
B25: 14217 R38P T41R C125S (protein)
chain: B3 chain with E38P, K41R
B26: 14207 T41D F42Y C125S (protein)
chain: B3 chain with E38R, K41D, F42Y
B27: 14206 T41E F42Y C125S (protein)
chain: B3 chain with E38R, K41E, F42Y
B28: XENP14206 (T41E F42Y C125S) (protein)
chain: B3 chain with E38R, K41E, F42Y
B29: XENP14208 (T41M F42Y C125S) (protein)
chain: B3 chain with E38R, K41M, F42Y

Key:
human CD25 (IL-2Rα) [1] = target: T1, human CD25 (IL-2Rα); assay: Biacore; pH 6.0
human CD25 (IL-2Rα) [2] = target: T1, human CD25 (IL-2Rα); assay: Biacore; pH 7.4
XENP26086 = assay: Octet
XENP26108 = assay: Octet
XENP26089 = assay: Octet
XENP26096 = assay: Octet
XENP26093 = assay: Octet
XENP26088 = assay: Octet
XENP26092 = assay: Octet
XENP26104 = assay: Octet
24640 = assay: Octet
24641 = assay: Octet
24732 = assay: Octet
24729 = assay: Octet
24643 = assay: Octet
24636 = assay: Octet
24728 = assay: Octet
24639 = assay: Octet
24725 = assay: Octet
human CD25 (IL-2Rα) [3] = target: T1, human CD25 (IL-2Rα); assay: Biacore; pH 7.4
human CD25 (IL-2Rα) [4] = target: T1, human CD25 (IL-2Rα); assay: Biacore; pH 6.0
human CD25 (IL-2Rα) [5] = target: T1, human CD25 (IL-2Rα); assay: Biacore; pH 7.4
human CD25 (IL-2Rα) [6] = target: T1, human CD25 (IL-2Rα); assay: Biacore; pH 6.0
CD122:CD132 [7] = assay: Octet
human CD25 (IL-2Rα) [8] = target: T1, human CD25 (IL-2Rα); assay: Octet
CD122:CD132 [9] = assay: Octet; remark: listed apart in the source
CD25 = target: B2; assay: Octet

In the case of B1, the Kd (human CD25 (IL-2Rα) [1]) is reported as 190 nM and the Kd (human CD25 (IL-2Rα) [2]) is reported as 2 nM.

B2 showed a Kd (XENP26086) of 16.9 nM, a Kd (XENP26108) of 27.7 nM and a Kd (XENP26089) of 14.4 nM. For the same binder, the Kd (XENP26096) was 39.2 nM, the Kd (XENP26093) was 21.3 nM and the Kd (XENP26088) was 16.6 nM. For the same binder, the Kd (XENP26092) was 26.4 nM, the Kd (XENP26104) was 14.7 nM and the Kd 24640 was 1.14 nM. It also gave a Kd 24641 of 12.7 nM, a Kd 24732 of 91.2 nM and a Kd 24729 of 25.5 nM. It also gave a Kd 24643 of 26.6 nM, a Kd 24636 of 14.5 nM and a Kd 24728 of 41.8 nM. The Kd 24639 was 8.04 nM and the Kd 24725 was 19.6 nM.

Work on B3 yielded a Kd (human CD25 (IL-2Rα) [3]) of 172 nM and a Kd (human CD25 (IL-2Rα) [4]) of 31.1 nM.

B4 gave a Kd (human CD25 (IL-2Rα) [4]) of 84.6 nM.

Work on B5 yielded a Kd (human CD25 (IL-2Rα) [5]) of 5950 nM.

Binder B6 has a Kd (human CD25 (IL-2Rα) [5]) of 75.4 nM.

For B7, the Kd (human CD25 (IL-2Rα) [6]) was 319 nM.

In the case of B8, the Kd (human CD25 (IL-2Rα) [3]) is reported as 196 nM and the Kd (human CD25 (IL-2Rα) [4]) is reported as 2470 nM.

Binder B9 has a Kd (CD122:CD132 [7]) of 57.3 nM and a Kd (human CD25 (IL-2Rα) [8]) of 28.5 nM.

Binder B10 has a Kd (human CD25 (IL-2Rα) [6]) of 2630 nM.

Binder B11 has a Kd (human CD25 (IL-2Rα) [1]) of 16.8 nM and a Kd (human CD25 (IL-2Rα) [2]) of 9.4 nM.

B12 was tested, and the Kd (human CD25 (IL-2Rα) [6]) was 128 nM.

B13 gave a Kd (human CD25 (IL-2Rα) [5]) of 149 nM.

Work on B14 yielded a Kd (human CD25 (IL-2Rα) [6]) of 57200 nM.

B15 gave a Kd (human CD25 (IL-2Rα) [5]) of 214 nM.

With B16 the Kd (human CD25 (IL-2Rα) [6]) was 1710 nM.

In the case of B17, the Kd (human CD25 (IL-2Rα) [3]) is reported as 1240 nM and the Kd (human CD25 (IL-2Rα) [4]) is reported as 1710 nM.

B18 was tested, and the Kd (human CD25 (IL-2Rα) [6]) was 2430 nM.

B19 showed a Kd (human CD25 (IL-2Rα) [3]) of 458 nM and a Kd (human CD25 (IL-2Rα) [4]) of 533 nM.

Binder B20 has a Kd (human CD25 (IL-2Rα) [3]) of 98.3 nM and a Kd (human CD25 (IL-2Rα) [4]) of 489 nM.

Work on B21 yielded a Kd (CD122:CD132 [7]) of 36.4 nM and a Kd (human CD25 (IL-2Rα) [8]) of 14.1 nM.

In the case of B22, the Kd (human CD25 (IL-2Rα) [5]) is reported as 1110 nM.

B23 gave a Kd (human CD25 (IL-2Rα) [5]) of 81 nM.

Binder B24 has a Kd (CD122:CD132 [9]) of 146 nM and a Kd (CD25) of 1.33 nM.

B25 showed a Kd (human CD25 (IL-2Rα) [5]) of 326 nM.

Work on B26 yielded a Kd (human CD25 (IL-2Rα) [5]) of 139 nM.

With B27 the Kd (human CD25 (IL-2Rα) [5]) was 280 nM.

B28 was tested, and the Kd (human CD25 (IL-2Rα) [6]) was 30300 nM.

Binder B29 has a Kd (human CD25 (IL-2Rα) [6]) of 83 nM.
